# Measurements reported in article PMC10977697 (PLOS ONE, 2024).
# B1: Her3-Fc_ChTx2 displayed on M13 phage (designed binder)
# chain: VSCTTSKECWSVCQRLHNTSWLGSCMERFCKCVD
# notes: Charybdotoxin scaffold; source: M13 phage from E. coli, culture supernatant
# B2: Her3-Fc_ChTx1 displayed on M13 phage (designed binder)
# chain: VSCTTSKECWSVCQRLHNTSWGEQCVTKFCKCEE
# notes: as for B1
# Key:
# [1] = target: T1, Notch2Long (Notch2 EGF6-EGF12) (human, UniProt Q04721 219-418, biotin on the N-terminal Avi tag (enzymatic)); test: ELISA; conditions: one partner purified
# T1 construct: also called N2L protein; hNotch2; not shown: Avi tag, N-terminal, kept
# T1 sequence (looked up): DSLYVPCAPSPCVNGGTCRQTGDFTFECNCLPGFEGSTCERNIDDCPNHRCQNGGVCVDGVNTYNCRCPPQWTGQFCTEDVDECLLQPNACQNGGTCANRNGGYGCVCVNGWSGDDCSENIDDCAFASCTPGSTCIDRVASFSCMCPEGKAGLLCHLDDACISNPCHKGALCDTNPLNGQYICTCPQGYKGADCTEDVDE
# HtrA1 = target: T2, HtrA1 (human, UniProt Q92743 23-480, biotin on lysines (Sulfo-NHS-LC-biotin) for panning and SPR); test: ELISA; conditions: one partner purified
# T2 construct: also called HtrA1 FL; human full-length HtrA1
# [2] = target: T3, Notch2NRR (Notch2 NRR domain) (human, UniProt Q04721 1423-1677, biotin on the N-terminal Avi tag (enzymatic)); test: SPR; conditions: both partners purified
# T3 construct: also called NRR protein; not shown: Avi tag, N-terminal, kept
# T3 sequence (looked up): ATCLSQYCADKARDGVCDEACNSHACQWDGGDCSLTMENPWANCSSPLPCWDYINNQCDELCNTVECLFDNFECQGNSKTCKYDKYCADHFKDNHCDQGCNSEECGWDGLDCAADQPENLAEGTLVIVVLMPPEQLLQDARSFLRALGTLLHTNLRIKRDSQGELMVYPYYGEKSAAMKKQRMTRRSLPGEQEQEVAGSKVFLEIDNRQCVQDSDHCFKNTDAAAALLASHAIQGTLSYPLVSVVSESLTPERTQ
# [3] = target: T3, Notch2NRR (Notch2 NRR domain); test: ELISA; conditions: one partner purified
# [4] = target: T4, Notch2Long (Notch2 EGF6-EGF12) (human, UniProt Q04721 219-418, biotin via the N-terminal Avi tag (enzymatic biotinylation)); test: SPR; conditions: both partners purified
# T4 construct: also called N2L protein; hNotch2; not shown: Avi tag, N-terminal, kept
# T4 sequence (looked up): T1 sequence (looked up)
# Her3-Fc = Her3-Fc (UniProt P21860 20-643); test: ELISA; conditions: one partner purified
# Chain of Her3-Fc (P21860 20-643): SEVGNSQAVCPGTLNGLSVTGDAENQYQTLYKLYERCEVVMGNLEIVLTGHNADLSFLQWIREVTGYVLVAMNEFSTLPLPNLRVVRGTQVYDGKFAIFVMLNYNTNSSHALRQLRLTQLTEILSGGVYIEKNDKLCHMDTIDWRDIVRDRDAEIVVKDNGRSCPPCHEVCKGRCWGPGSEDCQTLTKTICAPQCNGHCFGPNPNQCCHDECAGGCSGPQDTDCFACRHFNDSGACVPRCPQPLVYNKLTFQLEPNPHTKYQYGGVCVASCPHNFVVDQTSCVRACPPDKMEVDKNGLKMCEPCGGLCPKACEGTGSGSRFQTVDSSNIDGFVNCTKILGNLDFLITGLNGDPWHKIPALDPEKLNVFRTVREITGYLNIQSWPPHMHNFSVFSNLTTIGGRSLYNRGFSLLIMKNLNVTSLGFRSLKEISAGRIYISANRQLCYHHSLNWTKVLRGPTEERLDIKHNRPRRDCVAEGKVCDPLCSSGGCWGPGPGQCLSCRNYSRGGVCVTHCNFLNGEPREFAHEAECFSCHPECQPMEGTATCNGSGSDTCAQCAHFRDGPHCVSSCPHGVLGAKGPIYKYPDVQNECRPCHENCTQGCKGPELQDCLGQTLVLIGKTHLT
# T2 sequence (Q92743 23-480): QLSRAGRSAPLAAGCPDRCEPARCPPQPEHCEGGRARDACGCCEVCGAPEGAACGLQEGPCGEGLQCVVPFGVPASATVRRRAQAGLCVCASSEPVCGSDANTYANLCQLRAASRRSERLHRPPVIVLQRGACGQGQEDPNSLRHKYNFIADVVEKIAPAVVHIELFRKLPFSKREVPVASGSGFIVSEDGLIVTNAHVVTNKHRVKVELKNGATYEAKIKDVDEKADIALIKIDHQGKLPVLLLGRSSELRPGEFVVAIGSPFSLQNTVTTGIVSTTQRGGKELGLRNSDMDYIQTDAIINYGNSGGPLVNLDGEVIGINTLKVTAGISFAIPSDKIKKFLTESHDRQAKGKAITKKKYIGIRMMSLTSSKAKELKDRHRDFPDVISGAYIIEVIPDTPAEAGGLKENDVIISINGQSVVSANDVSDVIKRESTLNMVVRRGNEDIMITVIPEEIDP
Binder,ELISA [1],s/n Ratio [1],further results
GCIKSHLWCPGKERCLAGCICEIWIQCG (designed binder) [N2L.EET31.32.48 displayed on M13 phage (p3)],1.9,7.2,
GCHRPWWQLWGLCKQDSDCLAGCVCGPNGFCG (designed binder) [HtrA1_EET76 displayed on M13 phage],,,ELISA (HtrA1): 1; s/n Ratio (HtrA1): 13.7
GCIKSHLWCDPRVSCEAGCICEVWIQCG (designed binder) [N2L.EET31.43.78 displayed on M13 phage (p3)],1.9,10.3,
GCIKSHLWCDPRKSCEAGCICEVWIQCG (designed binder) [N2L.EET31.43.88 displayed on M13 phage (p3)],1.9,10.2,
GCIKSHLWCPRHEKCLAGCVCEVWIRCG (designed binder) [N2L.EET31.32.29 displayed on M13 phage (p3)],2,9.3,
GCIKSHLWCDPRKDCEAGCICEVWIQCG (designed binder) [N2L.EET31.43.75 displayed on M13 phage (p3)],2.1,10.3,
GCIRSHVWCKQDSDCEAGCICEVWVKCG (designed binder) [N2L.EET31.43.64 displayed on M13 phage (p3)],2,8.8,
GCRPRWGGWHCKQDSDCLAGCVCGPNGFCG (designed binder) [N2N-EET-57],,,Kd [2]: 132 µM
GCMPRYGGWHCKQDSDCLAGCVCGPNGFCG (designed binder) [N2N-EET-63],,,Kd [2]: 166 µM
GCRPRFKGWTCKQDSDCLAGCVCGPNGFCG (designed binder) [N2N-EET-n3],,,Kd [2]: 180 µM
GCMPRYGGWHCKQDSDCLAGCVCGPNGFCG (designed binder) [N2N-EET-63 displayed on M13 phage],,,ELISA [3]: 1.5; s/n Ratio [3]: 21.3
GCRPRFKGWTCKQDSDCLAGCVCGPNGFCG (designed binder) [N2N-EET-n3 displayed on M13 phage],,,ELISA [3]: 2.1; s/n Ratio [3]: 33.1
GCRPRWGGWHCKQDSDCLAGCVCGPNGFCG (designed binder) [N2N-EET-57 displayed on M13 phage],,,ELISA [3]: 3.8; s/n Ratio [3]: 30.9
GCIRSQLWCPSDERCLAGCVCEVWIKCG (designed binder) [N2L.EET31.32.80 displayed on M13 phage (p3)],2.1,7.6,
GCIRSHLWCPPSASCLAGCVCEVWIQCG (designed binder) [N2L.EET31.32.70 displayed on M13 phage (p3)],1.9,7.3,
GCGWTLRHCKQDSDCLAGCVCEPKWWCG (designed binder) [N2L.EET03.63],,,Kd [4]: 44.8 µM
GCGWTLRHCKQDSDCLAGCVCEPKWMCG (designed binder) [N2L.EET03.1867],,,Kd [4]: 9.5 µM
GCGWTLKHCKQDSDCLAGCVCEPIWWCG (designed binder) [N2L.EET03.30],,,Kd [4]: 13.1 µM
GCGWTLWHCKQDSDCLAGCVCEPKWMCG (designed binder) [N2L.EET03.67],,,Kd [4]: 15.4 µM
GCGWTLRHCKQDSDCLAGCVCEPVWWCG (designed binder) [N2L.EET03.88],,,Kd [4]: 8.8 µM
GCGWTLWHCKQDSDCLAGCVCEPKWFCG (designed binder) [N2L.EET03.58],,,Kd [4]: 8.2 µM
GCGWTLRHCKQDSDCLAGCVCEPIWWCG (designed binder) [N2L.EET03.18],,,Kd [4]: 8.9 µM
GCGWTLMHCKQDSDCLAGCVCEPIWWCG (designed binder) [N2L.EET03.n5],,,Kd [4]: 13.2 µM
GCGWTLRHCKQDSDCLAGCVCKPKWTCG (designed binder) [N2L.EET03.34],,,Kd [4]: 8.6 µM
WIPCISAALGCSCKNKVCYFLYQICGESCV (designed binder) [HtrA1_CirA38 displayed on M13 phage],,,ELISA (HtrA1): 2.1; s/n Ratio (HtrA1): 31.9

Binder,ELISA [1],s/n Ratio [1],further results
GCQQRRWGGWQQCKQDSDCLAGCVCGPNGFCG (designed binder) [N2N-EET-33],,,Kd [2]: 55.6 µM
GCGQKRMGGWQWCKQDSDCLAGCVCGPNGFCG (designed binder) [N2N-EET-n13 displayed on M13 phage],,,ELISA [3]: 3.4; s/n Ratio [3]: 53.9
GCQQRRWGGWQQCKQDSDCLAGCVCGPNGFCG (designed binder) [N2N-EET-33 displayed on M13 phage],,,ELISA [3]: 3.6; s/n Ratio [3]: 28.9
GCGQQRWGGWPLCKQDSDCLAGCVCGPNGFCG (designed binder) [N2N-EET-45 displayed on M13 phage],,,ELISA [3]: 3.5; s/n Ratio [3]: 14.9
GCGQQRWGGWPLCKQDSDCLAGCVCGPNGFCG (designed binder) [N2N-EET-45],,,Kd [2]: 55.9 µM
GCGQKRMGGWQWCKQDSDCLAGCVCGPNGFCG (designed binder) [N2N-EET-n13],,,Kd [2]: 12 µM
"ECKGKGAKCSIQWSVYPWKVCCTGSCRSGKC (designed binder, Conotoxin-MVIIA scaffold) [HtrA1_CnTx83 displayed on M13 phage]",,,ELISA (HtrA1): 1.1; s/n Ratio (HtrA1): 16.1
GCIKSHLWCPPPRRCEAGCICEVWIQCG (designed binder) [N2L.EET31.43.35 displayed on M13 phage (p3)],2.1,11.6,
"ACKGVFDACTWKNWRQSRSRECCPNAVCSDKHKWCKWKL (designed binder, Huwentoxin scaffold) [HtrA1_HwTx69 displayed on M13 phage]",,,ELISA (HtrA1): 0.9; s/n Ratio (HtrA1): 9.6
GCVRSHLWCKQDSDCEAGCICEVWIKCG (designed binder) [N2L.EET31.43.73 displayed on M13 phage (p3)],2.3,11,
GCIKSHLWCPRDSDCLAGCVCEVWIQCG (designed binder) [N2L.EET31.32.13 displayed on M13 phage (p3)],2.2,10.2,
GCIKSHLWCPPSDYCLAGCVCEVWIQCG (designed binder) [N2L.EET31.32.21 displayed on M13 phage (p3)],1.8,9.1,
GCVRSHVWCPSDERCLAGCVCEIWIRCG (designed binder) [N2L.EET31.32.85 displayed on M13 phage (p3)],2,4.3,
GCIKSHLWCHPKLDCEAGCICEVWIQCG (designed binder) [N2L.EET31.43.18 displayed on M13 phage (p3)],2.1,10.2,
B1,,,ELISA (Her3-Fc): 1.6; s/n Ratio (Her3-Fc): 24.3
GCIKSHLWCPKTSDCEAGCICEVWIQCG (designed binder) [N2L.EET31.43.24 displayed on M13 phage (p3)],2.1,10.5,
WIPCISAALGCSCKNKVCYIFSKHLCGESCV (designed binder) [HtrA1_CirA65 displayed on M13 phage],,,ELISA (HtrA1): 2.2; s/n Ratio (HtrA1): 33.9
GCIRSHVWCKQDSDCEAGCICEIWIQCG (designed binder) [N2L.EET31.43.43 displayed on M13 phage (p3)],2,10.2,
GCIKSHLWCPHGGRCEAGCICEVWIQCG (designed binder) [N2L.EET31.43.30 displayed on M13 phage (p3)],2.2,10.7,
"GCIKSHLWCKQDSDCEAGCICEVWIQCG (designed binder, also called N2L.31.L34.43) [N2L.EET31.43 displayed on M13 phage (p3)]",0.7,5.1,
GCIKSHLWCPRAEKCLAGCICEVWIQCG (designed binder) [N2L.EET31.32.33 displayed on M13 phage (p3)],1.9,9.3,
GCGWTLRHCKQDSDCLAGCVCRPIWYCG (designed binder) [N2L.EET03.10 displayed on M13 phage],3,48.4,
"GCIKSHLWCPSDERCLAGCVCEVWIQCG (designed binder, also called N2L.31.L2.32) [N2L.EET31.32 displayed on M13 phage (p3)]",0.5,3.7,
B2,,,ELISA (Her3-Fc): 1.7; s/n Ratio (Her3-Fc): 22.6
